Laboratory results published in patent US20240336947.

Target: deglucosylated type IV collagen

B1: R699, mimiviral collagen galactosylhydroxylysyl glucosyltransferase (GGT) (protein)
chain: MEQSNNDDNLLVLGIGISVHKTDGVLRFEKYCQAHNLQYMIVGEGKKWNGGNLESEAGGGQKINELLIALESIKDNKLIVVCDTYDLIPLSGPEEILRKYRFLTPDNKVVFSSELYCWPDASLVERYPKVDTKYKYLNSGAFMGYRDDIYEMIKNGVKDRDDDQLFFSIKFIETDKIVLDYKCELFQAMYRCNSDLVVHKNRIFNGYTNSYPVFAHGNGPAKKLLNHMEGYFMTEPIDGSSNTINTFKLDNEPKVFFALYVDSNDLSALKQFLGKVASIQYGNKVIYLYDRSDNEQNRKLIQISYPNYHTGVTKYVFDDFKKSDAQFYFLLEQNCIITKKDILHELIMQVKDNHRVISPMIGYEQNSTRTNFWGDIEDGYYKRSENYLDLAKHKVRGLWNVPYVYGVILMHESVVRNWDLSMVKYNDKDMDLCFSLRKHTIFMYMINNNNYGYMV
  glucosylation of type IV collagen detected by LC-MS with UDP-[UL-13C6]-glucose: R699 (FIG. 4C,4D) glucosylates collagen peptidyl galactosylhydroxylysine to [13C6]-glucosylgalactosylhydroxylysine
